# Experimental data from article PMC4268158 (Nature, 2014).
# Substitutions are numbered along the chain they refer to. Values joined by “and” are separate entries in the source; they are usually repeats but may differ in a detail not shown here. Identical values can stand only once.
# T1: CsgE-his (pNH27) (Escherichia coli), P0AE95
# T1 chain: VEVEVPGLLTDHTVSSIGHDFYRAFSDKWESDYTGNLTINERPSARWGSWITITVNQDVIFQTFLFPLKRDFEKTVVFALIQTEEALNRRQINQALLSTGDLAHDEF
# B1: CsgE-his (pNH27), P0AE95 23-129 (natural protein)
# chain: T1 chain
# B2: CsgGC1S, non-lipidated soluble periplasmic form, C-terminally StrepII-tagged (pPG2) (natural protein, Escherichia coli, UniProt P0AEA2 16-277, looked up)
# chain: SLTAPPKEAARPTLMPRAQSYKDLTHLPAPTGKIFVSVYNIQDETGQFKPYPASNFSTAVPQSATAMLVTALKDSRWFIPLERQGLQNLLNERKIIRAAQENGTVAINNRIPLQSLTAANIMVEGSIIGYESNVKSGGVGARYFGIGADTQYQLDQIAVNLRVVNVSTGEILSSVNTSKTILSYEVQAGVFRFIDYQRLLEGEVGYTSNEPVMLCLMSAIETGVIFLINDGIDRGLWDLQNKAERQNDILVKYRHMSVPPES
# B3: CsgG, native membrane-extracted, C-terminally StrepII-tagged (pPG1) (natural protein, Escherichia coli, UniProt P0AEA2 16-277, looked up)
# chain: B2 chain with S1C
# modifications: diacylglycerol- and amide-linked acyl chain on the N-terminal Cys (lipid anchor)
# Columns and labels:
# [1] = molecular target: T1, CsgE-his (pNH27) (Escherichia coli), …; assay: SEC; conditions: remark: other sources report otherwise
# [2] = molecular target: T1, CsgE-his (pNH27) (Escherichia coli), …; assay: cryo-EM structure; conditions: remark: other sources report otherwise
# [3] = molecular target: T1, CsgE-his (pNH27) (Escherichia coli), …; assay: cryo-EM class averages; conditions: remark: other sources report otherwise
# [4] = molecular target: T1, CsgE-his (pNH27) (Escherichia coli), …; assay: negative-stain EM; conditions: remark: other sources report otherwise
# [5] = molecular target: the molecule itself; assay: SEC + other: negative-stain EM
# cryo-EM structure = molecular target: the molecule itself; assay: cryo-EM structure
# [6] = molecular target: the molecule itself; assay: SEC + other: negative-stain EM; remark: listed apart in the source
binder,measurement,setting,value
B1,stoichiometry N,[1],9.16
same,stoichiometry N,[2],9
same,stoichiometry N,[3],9
same,stoichiometry N,[4],9
B2,stoichiometry N,[5],16 and 8
B3,stoichiometry N,cryo-EM structure,9
same,stoichiometry N,[6],18
